Laboratory results from article PMC9800720, “Size-advantage of monovalent nanobodies against the macrophage mannose receptor for deep tumor penetration and tumor-associated macrophage targeting” (Theranostics, 2023).

Target: T1, recombinant murine MMR protein (Macrophage Mannose Receptor, CD206) (Mus musculus, UniProt Q61830)
T1 construct: Macrophage Mannose Receptor (MMR, CD206), mouse, recombinant protein of R&D systems, catalogue 2535-MM; also called recombinant mouse MMR protein; MMR Ag; source: bought: R&D systems (2535-MM)
T1 sequence (Q61830 20-1388): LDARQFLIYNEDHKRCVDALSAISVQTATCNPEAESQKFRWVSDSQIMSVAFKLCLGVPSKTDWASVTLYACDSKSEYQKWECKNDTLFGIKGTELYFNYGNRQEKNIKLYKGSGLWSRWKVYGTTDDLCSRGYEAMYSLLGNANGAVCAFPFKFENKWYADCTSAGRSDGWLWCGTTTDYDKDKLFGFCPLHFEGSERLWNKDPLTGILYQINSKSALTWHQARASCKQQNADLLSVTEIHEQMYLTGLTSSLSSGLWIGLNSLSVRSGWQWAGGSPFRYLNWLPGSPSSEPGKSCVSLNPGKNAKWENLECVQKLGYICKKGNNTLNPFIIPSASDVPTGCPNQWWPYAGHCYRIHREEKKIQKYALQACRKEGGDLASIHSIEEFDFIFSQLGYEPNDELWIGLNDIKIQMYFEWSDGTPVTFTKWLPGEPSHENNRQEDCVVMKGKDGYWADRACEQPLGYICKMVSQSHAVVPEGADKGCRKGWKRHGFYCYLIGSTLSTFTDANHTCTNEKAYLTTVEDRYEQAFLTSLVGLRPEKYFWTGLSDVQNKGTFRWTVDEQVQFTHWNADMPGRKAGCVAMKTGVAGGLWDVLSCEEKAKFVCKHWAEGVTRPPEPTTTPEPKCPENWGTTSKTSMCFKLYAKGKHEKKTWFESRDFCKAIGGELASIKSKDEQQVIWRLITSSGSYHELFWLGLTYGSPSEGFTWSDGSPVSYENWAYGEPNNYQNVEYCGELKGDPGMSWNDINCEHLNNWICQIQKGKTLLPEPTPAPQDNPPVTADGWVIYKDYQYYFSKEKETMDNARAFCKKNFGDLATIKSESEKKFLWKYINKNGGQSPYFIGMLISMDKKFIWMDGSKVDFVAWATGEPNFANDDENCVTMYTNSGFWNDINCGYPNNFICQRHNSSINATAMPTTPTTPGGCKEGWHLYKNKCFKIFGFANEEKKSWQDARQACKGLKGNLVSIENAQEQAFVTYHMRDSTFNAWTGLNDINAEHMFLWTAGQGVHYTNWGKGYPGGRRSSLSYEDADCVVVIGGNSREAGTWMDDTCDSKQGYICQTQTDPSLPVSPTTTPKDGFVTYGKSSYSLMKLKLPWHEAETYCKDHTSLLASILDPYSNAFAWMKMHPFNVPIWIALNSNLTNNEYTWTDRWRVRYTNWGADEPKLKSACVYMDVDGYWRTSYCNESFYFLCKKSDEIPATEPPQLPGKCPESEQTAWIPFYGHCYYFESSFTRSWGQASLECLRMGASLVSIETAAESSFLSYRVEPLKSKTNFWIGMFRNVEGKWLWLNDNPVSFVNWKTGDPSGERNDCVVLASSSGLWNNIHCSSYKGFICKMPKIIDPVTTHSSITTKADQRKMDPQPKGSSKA
Assay: SPR; Biacore T200; recombinant murine MMR immobilised on a CM5 chip by amine coupling at pH 5; Nbs injected in three-fold dilutions from 100 to 0.4 nM; 25 °C, HEPES buffered saline, 30 µL/min; association 180 s, dissociation 600 s; table gives two sets of rate constants (ka1/kd1, ka2/kd2); affinity of the bivalent Nb called apparent
Settings: both partners purified

B1: monovalent anti-Macrophage Mannose Receptor nanobody, (m)anti-MMR Nb (VHH)
VHH: QVQLQESGGGLVQPGGSLRLSCAASGNIFSINAIGWYRQAPGKQRELVATITLSGSTNYADSVKGRFSISRDNAKNTVYLQMNSLKPEDTAVYYCNANTYSDSDVYGYWGQGTQVTVSS
notes: anti-MMR nanobody MMRCl1; also called (m)anti-MMR Nbs; MMRCl1; source: E. coli WK6, periplasmic extract, purified (Ni-NTA, SEC); not shown: His6, C-terminal, kept
  Kd: 25 nM
